Experiments:
[1] = molecular target: HLA-G recombinant protein (CAT #: TP305216, Origene) (human) (UniProt P17693); assay: competitive ELISA, HLA-G coated, competitor biotinylated KIR2DL4
[2] = molecular target: HLA-G recombinant protein (CAT #: TP305216, Origene) (human) (UniProt P17693); assay: competitive ELISA, HLA-G coated, competitor biotinylated LILRB1
[3] = molecular target: T1, HLA-G recombinant protein (CAT #: TP305216, Origene) (human, UniProt P17693 25-338, limits assumed); assay: competitive ELISA, HLA-G coated, competitor biotinylated KIR2DL4; blocking normalized to 87G
T1 construct: Bought recombinant protein coated on the plate; also called human leukocyte antigen-G
Description: (§1) The procedure is as follows. HLA-G recombinant protein (CAT #: TP305216, Origene) (0.2 mg/ml, 100 μl each well) was coated on 96-well plate overnight at 4° C. Next day, the coating buffer was discarded, and blocked with 3% skin milk for 2 hr at room temperature, followed by washing 5 times with PBST (0.05% Tween in PBS). […] After 9 times of washing, each well was incubated with 100 μl PBST containing streptavidin-HRP conjugates (ThermoFisher, Cat No: N100, dilution titer: […]) for 2 hr at room temperature. After 9 times of washing with PBST, 50 μl of TMB substrate for detecting HRP activity (ThermoFisher, Cat No:N301) was added. The reactions were stopped by adding 50 μl stop solution (ThermoFisher, Cat No:N600), and it was measured by ELISA reader using 450 nm channel.

[4] = molecular target: T1, HLA-G recombinant protein (CAT #: …); assay: competitive ELISA, HLA-G coated, competitor biotinylated LILRB1; blocking normalized to 87G
Description: as §1

Row | IC50 [1] [µg/mL] | IC50 [2] [µg/mL] | IC50 [3] [µg/mL] | IC50 [4] [µg/mL] | Molecule
1 | 0.0414 | 0.101 | – | – | commercial anti-HLA-G monoclonal antibody (87G)
2 | – | – | 0.00614 | 0.000825 | anti-HLA-G nanobody clone #9 (VHH, also called anti-tumor antigen nanobody; anti-HLA-G nanobody (NB)) VHH: QVQLVESGGGSVQAGGSLRLSCEASGRTYSSNCMGWFRQAPGKERENVAAIYTGGDGITYADSVKGRFTISQDKLKNMLYLQMDSLKPEDTAMYYCAADPNRRRMGVGGSCLRANFGPGGQGTQVTVSS
3 | – | – | 0.814 | 0.000174 | anti-HLA-G nanobody clone #20 (VHH, also called anti-tumor antigen nanobody; anti-HLA-G nanobody (NB)) VHH: EVQLVESGGGSVRPGETLRLSCTASGFTVDDSDMSWYRQAPGDECELVSSITSGGGKYYSHPVKGRFTIFRDKGKNTMYLQMNSLVPEDTGVYYCVAPAWTGYGCTWGQGTQVTVSS

Reference: patent publication US20220306747A1 (CHINA MEDICAL UNIVERSITY HOSPITAL, published 2022)
